Source: patent US12559863B2, “Macrocyclic modulators of disease associated protein misfolding and aggregation” (RESQ BIOTECH, priority 2017, dated 2026)

Target: T1, Aβ42-GFP (Homo sapiens, UniProt P05067)
T1 construct: a chimeric fusion of the human Aβ(1-42) peptide (Aβ42) with GFP; expressed in transfected cells; host or cells: E. coli BL21(DE3)
Experiment: High-throughput sequencing of pSICLOPPS vectors isolated after bacterial sorting for enhanced Aβ42-GFP fluorescence
Conditions: for Reads/Total TXXXR reads (%): relative to total TXXXR reads; for Reads/Total pentapeptide reads (%): relative to total pentapeptide reads
From the text: On the other hand, very few bioactive sequences resembling AβC5-34 should exist. […] The peptide-encoding vectors contained in these clones were isolated and the peptide-encoding region of approximately 5.6 million of these plasmids was sequenced using an Ion Torrent high-throughput sequencing platform. […] First, pentapeptides were the dominant peptide species within the sorted pool (FIG. 12D), in agreement with previous observations (FIG. 8G). Second, the most prevalent motif among the selected pentapeptide sequences were TXXXR pentapeptides (˜47% of the selected pentapeptide-encoding pSICLOPPS plasmids; ˜42% of the unique selected pentapeptide sequences) (Table 1), in accordance with previous observations (FIG. 8G). […] At position 2, Thr, Ala, and Val were preferred, while aromatic residues (Phe, Trp, Tyr) were completely excluded from the selected TXXXR peptide pool, in full agreement with our site-directed mutagenesis studies. At the highly variable position 3, the complete absence of the negatively charged amino acids Glu and Asp among the selected sequences was notable (FIG. 12E). […] It is noteworthy, that Lys and Gln residues were practically absent from all positions, while the β sheet-breaking amino acid Pro that is typically included in designed peptide-based inhibitors of amyloid aggregation appeared with strikingly low frequencies (FIG. 12E).
Electrocompetent E. coli BL21(DE3) cells (Novagen, USA) carrying either the expression vector pETSOD1(A4V)-GFP, which produces SOD1(A4V)-GFP under control of the strong bacteriophage T7 promoter, or pETAβ42-GFP, which produces Aβ42-GFP under control of the T7 promoter, were co-transformed with the combined pSICLOPPS-NuX1X2X3-X5 vector library. Approximately 10^8 transformants carrying both the vector library and either pETSOD1(A4V)-GFP or pETAβ42-GFP vectors were harvested, pooled together, and grown in Luria-Bertani (LB) liquid medium containing either 0.005% (pETSOD1(A4F)-GFP) or 0.002% (pETAβ42-GFP) L-arabinose—the inducer of cyclic peptide production—at 37° C. with shaking. When the optical density at 600 nm (OD600) of the bacterial culture was about 0.5, 0.01 (pETSOD1(A4F)-GFP) or 0.1 (pETAβ42-GFP) mM isopropyl-β-D-thiogalactoside (IPTG) was added to the medium to induce overexpression of the reporter. […] The isolated cells were re-grown and screened for additional rounds in an identical manner until the desired enrichment in high-fluorescence clones was achieved.
For the characterization of the initial libraries, a combined pSICLOPPS-NuX1X2X3-X5 vector library was prepared containing approximately equal amounts of each one of the tetra-, penta- and hexapeptide sub-libraries. These samples were digested with NcoI and BsrGI and the resulting ˜250 bp product that contained the variable peptide-encoding region was isolated. High-throughput sequencing analysis was performed using an Ion Torrent high-throughput sequencing platform. From the obtained data, all the sequences with mismatches outside of the variable peptide-encoding region were removed, and only the 12-, 15- or 18-bp-long peptide-encoding sequences were subjected to further analysis. The libraries of the selected cyclic peptides that enhance either SOD1(A4V)-GFP or Aβ42-GFP fluorescence were sequenced in a similar manner, with the only exception being that all sequences including stop codons were discarded from subsequent analysis.

[1] = after the second round of bacterial sorting
[2] = after the second round of bacterial sorting, relative to total peptide reads
[3] = high-throughput sequencing of isolated pSICLOPPS-NuX1X2X3-X5 vectors after the second round of bacterial sorting for enhanced Aβ42-GFP fluorescence, selected cyclo-TXXXR pentapeptides
[4] = after the second round of bacterial sorting for enhanced Aβ42-GFP fluorescence
[5] = after the second round of bacterial sorting for enhanced Aβ42-GFP fluorescence, relative to total peptide reads
[6] = pSICLOPPS-NuX1X2X3-X5 vectors after the second round of bacterial sorting for enhanced Aβ42-GFP fluorescence
[7] = Table 4, hexapeptides, after second round of sorting

| Substance | Reads/Total TXXXR reads (%) [1] | Reads/Total pentapeptide reads (%) [1] | Reads/Total peptide reads (%) [2] | Number of reads [3] | also measured |
| --- | --- | --- | --- | --- | --- |
| AβC5-2 (TTYAR; cyclic) | 16.023% | 7.506% | 6.727% | 304,753 |  |
| AβC5-321 (TTTFR; head-to-tail cyclic) | 0.008% | 0.004% | 0.003% | 148 |  |
| AβC5-438 (TTTSR; cyclic pentapeptide) |  |  |  |  | Reads/Total TXXXR reads (%) [4]: 0.003%; Reads/Total pentapeptide reads (%) [4]: 0.002%; Reads/Total peptide reads (%) [5]: 0.001%; Number of reads [6]: 62 |
| TPAWLD [AβC6-79] |  |  |  |  | Reads/Total hexapeptide reads (%) (Table 4): 0.012%; Reads/Total peptide reads (%) (Table 4): 0.001%; Number of reads [7]: 55 |
| AβC5-102 (TTYNR; cyclic) | 0.319% | 0.149% | 0.134% | 6,067 |  |
| AβC5-391 (TLLIR; head-to-tail cyclic) |  |  |  |  | Reads/Total TXXXR reads (%) [4]: 0.005%; Reads/Total pentapeptide reads (%) [4]: 0.002%; Reads/Total peptide reads (%) [5]: 0.002%; Number of reads [6]: 88 |
| AβC5-258 (TTSCR; cyclic) | 0.016% | 0.007% | 0.007% | 301 |  |
| TLSWFN [AβC6-59] |  |  |  |  | Reads/Total hexapeptide reads (%) (Table 4): 0.031%; Reads/Total peptide reads (%) (Table 4): 0.003%; Number of reads [7]: 141 |
| AβC5-21 (TTWCR; cyclic) | 1.908% | 0.894% | 0.801% | 36,295 |  |
| AβC5-315 (TTSER; head-to-tail cyclic) | 0.008% | 0.004% | 0.003% | 158 |  |
| TPVLVD [AβC6-48] |  |  |  |  | Reads/Total hexapeptide reads (%) (Table 4): 0.052%; Reads/Total peptide reads (%) (Table 4): 0.005%; Number of reads [7]: 236 |
| TLHWFE [AβC6-26] |  |  |  |  | Reads/Total hexapeptide reads (%) (Table 4): 0.143%; Reads/Total peptide reads (%) (Table 4): 0.014%; Number of reads [7]: 647 |
| AβC5-176 (TAGWR; cyclic) | 0.050% | 0.023% | 0.021% | 945 |  |
| AβC5-12 (TTWAR; cyclic) | 3.466% | 1.624% | 1.455% | 65,929 |  |
| AβC5-126 (TTLLR; cyclic) | 0.159% | 0.074% | 0.067% | 3,016 |  |
| AβC5-46 (TLLWR; cyclic pentapeptide) | 1.049% | 0.492% | 0.440% | 19,957 |  |
| AβC5-378 (TTTGR; head-to-tail cyclic) | 0.005% | 0.002% | 0.002% | 96 |  |
| AβC5-294 (TTPHR; cyclic) | 0.011% | 0.005% | 0.005% | 207 |  |
| AβC5-475 (TTGDR; cyclic pentapeptide) |  |  |  |  | Reads/Total TXXXR reads (%) [4]: 0.003%; Reads/Total pentapeptide reads (%) [4]: 0.001%; Reads/Total peptide reads (%) [5]: 0.001%; Number of reads [6]: 51 |
| AβC5-270 (TATWR; cyclic) | 0.014% | 0.007% | 0.006% | 266 |  |

| Substance | Reads/Total TXXXR reads (%) [1] | Reads/Total pentapeptide reads (%) [1] | Reads/Total peptide reads (%) [2] | Number of reads [3] | also measured |
| --- | --- | --- | --- | --- | --- |
| AβC5-272 (TCMWR; cyclic) | 0.013% | 0.006% | 0.006% | 254 |  |
| AβC5-453 (TLFWR; cyclic pentapeptide) |  |  |  |  | Reads/Total TXXXR reads (%) [4]: 0.003%; Reads/Total pentapeptide reads (%) [4]: 0.001%; Reads/Total peptide reads (%) [5]: 0.001%; Number of reads [6]: 57 |
| AβC5-80 (TSVHR; cyclic) | 0.535% | 0.251% | 0.225% | 10,181 |  |
| TLLIRW [AβC6-8] |  |  |  |  | Reads/Total hexapeptide reads (%) (Table 4): 2.902%; Reads/Total peptide reads (%) (Table 4): 0.290%; Number of reads [7]: 13,135 |
| TLEYLW [AβC6-49] |  |  |  |  | Reads/Total hexapeptide reads (%) (Table 4): 0.051%; Reads/Total peptide reads (%) (Table 4): 0.005%; Number of reads [7]: 233 |
| cyclo-TTSR (cyclic) [AβC4-31] |  |  |  |  | Normalized read number (%) (Table 3, cyclo-TXXR tetrapeptides): 0.3241% |
| AβC5-190 (TLCLR; cyclic) | 0.039% | 0.018% | 0.016% | 739 |  |
| TPIVFD [AβC6-36] |  |  |  |  | Reads/Total hexapeptide reads (%) (Table 4): 0.085%; Reads/Total peptide reads (%) (Table 4): 0.008%; Number of reads [7]: 384 |
| AβC5-139 (TTSPR; cyclic) | 0.100% | 0.047% | 0.042% | 1,904 |  |
| AβC5-239 (TTMHR; cyclic) | 0.020% | 0.009% | 0.008% | 384 |  |
| AβC5-473 (THVAR; cyclic pentapeptide) |  |  |  |  | Reads/Total TXXXR reads (%) [4]: 0.003%; Reads/Total pentapeptide reads (%) [4]: 0.001%; Reads/Total peptide reads (%) [5]: 0.001%; Number of reads [6]: 51 |
| AβC5-384 (TTYTR; head-to-tail cyclic) | 0.005% | 0.002% | 0.002% | 90 |  |
| AβC5-323 (TAVDR; head-to-tail cyclic) | 0.008% | 0.004% | 0.003% | 147 |  |
| AβC5-248 (TTTHR; cyclic) | 0.018% | 0.008% | 0.007% | 339 |  |
| AβC5-396 (TTTPR; head-to-tail cyclic) |  |  |  |  | Reads/Total TXXXR reads (%) [4]: 0.004%; Reads/Total pentapeptide reads (%) [4]: 0.002%; Reads/Total peptide reads (%) [5]: 0.002%; Number of reads [6]: 84 |
| AβC5-45 (TTWVR; cyclic pentapeptide) | 1.094% | 0.512% | 0.459% | 20,798 |  |
| AβC5-463 (TVVDR; cyclic pentapeptide) |  |  |  |  | Reads/Total TXXXR reads (%) [4]: 0.003%; Reads/Total pentapeptide reads (%) [4]: 0.001%; Reads/Total peptide reads (%) [5]: 0.001%; Number of reads [6]: 54 |
| TPSWFD [AβC6-65] |  |  |  |  | Reads/Total hexapeptide reads (%) (Table 4): 0.023%; Reads/Total peptide reads (%) (Table 4): 0.002%; Number of reads [7]: 105 |
| AβC5-348 (TTLTR; head-to-tail cyclic) | 0.006% | 0.003% | 0.003% | 119 |  |
| TPPWFD [AβC6-44] |  |  |  |  | Reads/Total hexapeptide reads (%) (Table 4): 0.064%; Reads/Total peptide reads (%) (Table 4): 0.006%; Number of reads [7]: 289 |
